Laboratory results: the supplement of paper PMC9170038

Test system: MS2 coat protein
Test: apparent KD of MS2 coat protein; designed switch direction (-1 OFF switch, 1 ON switch): 1; higher = weaker reporter binding
In short: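 Transcription of designed RNA switches on Illumina chips was done by stalled E. coli RNA polymerase. SNAP-549-labelled MS2 coat protein was then titrated in doubling steps from 0.7 or 1.5 nM to 3 µM, with steps of 0.8–1.5 h at the lowest and 10–20 min at the highest concentration. The per-design median over clusters of curve-fitted normalised fluorescence is reported as apparent KD.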

[1] = Eterna round: R95, input ligand: FMN 200 uM
[2] = Eterna round: R95, input ligand: microRNA oligo, concentration not stated
[3] = Eterna round: R95, input ligand: none
[4] = input ligand: microRNA oligo, concentration not stated

Sequence: AGUCCAGCCUGAGCUGGACAAAAGCAUGUACAUGAGGAUCACCCAUGUCAUGUGCAAGCUUUUUGCUCGUCUUAAAA [Zipper 46 - 6] (puzzle: Sensor for hsa-mir-208a)
- apparent KD of MS2 coat protein [1]: 61 nM
- apparent KD of MS2 coat protein [2]: 11.6 nM
- apparent KD of MS2 coat protein [3]: 67.9 nM

Sequence: UAGUACAUGCUUUUUGUCUGUCUUAGAUAACAUGAGGAUCACCCAUGUAAGGUGAAAGUUAUAUAGUUUAUGAAUAU [JR_SHM208A_Sub058] (puzzle: Sensor for hsa-mir-208a)
- apparent KD of MS2 coat protein [1]: 188 nM
- apparent KD of MS2 coat protein [2]: 346 nM
- apparent KD of MS2 coat protein [3]: 264 nM

Sequence: CGCCAGAGAGCAGGAUAUGGGCCACAGCCUAAGGGCUGUGAACUCACAUGAGGAUCACCCAUGUCCCAGAAGGGCUCCUAGCUA [Erzabe] (Eterna round: R96, puzzle: Same State NG 2)
- apparent KD of MS2 coat protein (input ligand: FMN 200 uM): 203 nM
- apparent KD of MS2 coat protein [4]: 701 nM
- apparent KD of MS2 coat protein (input ligand: none): 1920 nM

Sequence: AAUGUCUCACAUGAGGAUCACCCAUGUCUUUGGAUGAAGCUUUUUGCUCGUCUUCAUUUUGCUCGUCUUACCCAUGU [SBY_1] (puzzle: Sensor for hsa-mir-208a version 2)
- apparent KD of MS2 coat protein [1]: 44.8 nM
- apparent KD of MS2 coat protein [2]: 21 nM
- apparent KD of MS2 coat protein [3]: 52.7 nM

Sequence: GGUGCCAAUAAAGCCUACAUGAGGAUCACCCAUGUAUGUAGGCAGGAUAUCGUUUGCUUUGCAAACGAGAAGGGCCGAGGCACC [JL SSNG3 1.19] (Eterna round: R96, puzzle: Same State NG 3)
- apparent KD of MS2 coat protein (input ligand: FMN 200 uM): 20.4 nM
- apparent KD of MS2 coat protein [4]: 25.1 nM
- apparent KD of MS2 coat protein (input ligand: none): 42.7 nM

Sequence: AACCCGAAGGGAGGAUAUGGCACCUUAUUGGUGCCAGAAGGUCCUCACAUGAGGAUCACCCAUGUGGGCCGGUCGAAAGACCGG [Fiskers NG1ss - 12] (Eterna round: R96, puzzle: Same State NG 1)
- apparent KD of MS2 coat protein (input ligand: FMN 200 uM): 532 nM
- apparent KD of MS2 coat protein [4]: 407 nM
- apparent KD of MS2 coat protein (input ligand: none): 500 nM

Sequence: AAUUUUAAACAUGAGGAUCACCCAUGUGUUAUAUAAGCAAAUAAAUAAAUAAAUAAAUAAAUAAAUAAAUAAAUAAA [RNA Sequence] (puzzle: Sensor for hsa-mir-208a version 2)
- apparent KD of MS2 coat protein [1]: 34.1 nM
- apparent KD of MS2 coat protein [2]: 40.2 nM
- apparent KD of MS2 coat protein [3]: 44.5 nM

Sequence: CCGUAGAUGGGACAGGAUAUGACUGUCGUCACAUGAGGAUCACCCAUGUCCCGGCAAUGCCACCGUUAGAAGGGUCCCGUCUCGG [Tiquiser] (puzzle: Same State 2)
- apparent KD of MS2 coat protein [2]: 12.2 nM

Sequence: AAAGGAUGAUUAUACAUGAGGAUCACCCAUGUAAGUUAUACUAAGGAUAUGUGACUUAAUAGUUUACAGAAGGUAGGUUCAUGA [AK SSNG3-V2-2] (Eterna round: R96, puzzle: Same State NG 3)
- apparent KD of MS2 coat protein (input ligand: FMN 200 uM): 43.8 nM
- apparent KD of MS2 coat protein [4]: 69.3 nM
- apparent KD of MS2 coat protein (input ligand: none): 59.9 nM

Sequence: UGGAUCUAGGCUUGCCUGGGUCCAUGUUGACAUGAGGAUCACCCAUGUGUAUUUUAUAAGCUUUUUGUUUGUCAACU [JL A Humble Attempt mod 8] (puzzle: Sensor for hsa-mir-208a)
- apparent KD of MS2 coat protein [1]: 25.7 nM
- apparent KD of MS2 coat protein [2]: 12.8 nM
- apparent KD of MS2 coat protein [3]: 28.4 nM

Sequence: GCUCGGCUGAUGGCCCACAUGAGGAUCACCCAUGUGACUGGGCAGGAUAUCUAGAUUCAGGAUGUAGAGAAGGGCCUGCCGAGC [SameState NG3 #40] (Eterna round: R96, puzzle: Same State NG 3)
- apparent KD of MS2 coat protein (input ligand: FMN 200 uM): 331 nM
- apparent KD of MS2 coat protein [4]: 77.3 nM
- apparent KD of MS2 coat protein (input ligand: none): 188 nM

Sequence: UGUUGUAUUACAGGAUAUCUAUUAUUUUUAUUUAGAGAAGGGUAUUCACAUGAGGAUCACCCAUGUAUAUACGAGGAAGUUGUG [JMF's solution 6] (Eterna round: R96, puzzle: Same State NG 1)
- apparent KD of MS2 coat protein [4]: 42.7 nM

Sequence: AUUUAACAAGCUUUUUGCUCGUCUUAUAAACAUGAGGAUCACCCAUGUAAUAGCGUGAGAGUAAAUUUAUAAAUAAU [JMF 88] (puzzle: Sensor for hsa-mir-208a)
- apparent KD of MS2 coat protein [1]: 15.7 nM
- apparent KD of MS2 coat protein [2]: 42.5 nM
- apparent KD of MS2 coat protein [3]: 14.7 nM

Sequence: AUUUCUAGCAUAGGAUAUCAUGCGAAAAUUGCGUGAGAAGGGUGGACGCUGUCAUUCACGGAAGACAUGAGGAUCACCCAUGUC [SameState NG1 #75] (Eterna round: R96, puzzle: Same State NG 1)
- apparent KD of MS2 coat protein (input ligand: FMN 200 uM): 76.6 nM
- apparent KD of MS2 coat protein [4]: 67.6 nM
- apparent KD of MS2 coat protein (input ligand: none): 87.2 nM

Sequence: GUUAAGAACUAAGGAUAUUGAAUACAUAUGUUUAACAUGAGGAUCACCCAUGUGGGUUGCGGUAUCGAGAAGGUAGAAUAAUAG [Mat - same State NG 2 - JL mod - D93] (Eterna round: R96, puzzle: Same State NG 2)
- apparent KD of MS2 coat protein [4]: 89.8 nM

Sequence: GUUACAUGAGGAUCACCCAUGUAUGUGUGGGAGUAAGUGUCUUAGGAUAUCUAUCAUUUAAUUAAAGAGAAGGAAGAUUGUUGU [JMF's solution 98] (Eterna round: R96, puzzle: Same State NG 3)
- apparent KD of MS2 coat protein (input ligand: FMN 200 uM): 86.9 nM
- apparent KD of MS2 coat protein [4]: 87.3 nM
- apparent KD of MS2 coat protein (input ligand: none): 113 nM

Sequence: GGAGCCGGCACUGAGGAUAUUCAUAUUAAAACAUGAGGAUCACCCAUGUAGGCCAGAAGGCCUUGGGAGAAGGCGGGUCGGCCCG [Bibimoar - 3] (puzzle: Same State 2)
- apparent KD of MS2 coat protein [1]: 27.2 nM
- apparent KD of MS2 coat protein [2]: 360 nM
- apparent KD of MS2 coat protein [3]: 647 nM

Sequence: UGAAUGGUGAUAGGAUAUACAUGAGGAAUCCUCGUAGAAGGAUCAUGACAUGAGGAUCACCCAUGUAGCGCUCAGAAGAGCGCA [Mat - Same State NG 1 - JL mod - D53] (Eterna round: R96, puzzle: Same State NG 1)
- apparent KD of MS2 coat protein (input ligand: FMN 200 uM): 129 nM
- apparent KD of MS2 coat protein [4]: 42.4 nM
- apparent KD of MS2 coat protein (input ligand: none): 83.9 nM

Sequence: AUAUGAGGAGCAGGAUAUGCGGAGAAGAAAGAAGCAGAAGGGCUCAUGGGACGACAUGAGGAUCACCCAUGUACUCCGCGAUGA [AK SSNG1-V2-5] (Eterna round: R96, puzzle: Same State NG 1)
- apparent KD of MS2 coat protein (input ligand: FMN 200 uM): 103 nM
- apparent KD of MS2 coat protein [4]: 520 nM
- apparent KD of MS2 coat protein (input ligand: none): 1350 nM

Sequence: AUUACGAGCGUAGGAUAUGGGAAAGGAAGUGUACCAGAAGGACGAAUACAGCGUCCGGACAUGAGGAUCACCCAUGUAGGACGC [PowerStrip SSNG 1.19] (Eterna round: R96, puzzle: Same State NG 1)
- apparent KD of MS2 coat protein (input ligand: FMN 200 uM): 11.5 nM
- apparent KD of MS2 coat protein [4]: 21.8 nM
- apparent KD of MS2 coat protein (input ligand: none): 26.1 nM

Sequence: GGAUGAUUAAUAGGAUAUUAGUUGUAAAAUGUUUAAGAAGGAUUAAUGAUUUAAACGACCAGUUACAUGAGGAUCACCCAUGUU [JR_SSNG1_Sub093] (Eterna round: R96, puzzle: Same State NG 1)
- apparent KD of MS2 coat protein [4]: 20.6 nM

Sequence: GCUGGAAACUACAUGAGGAUCACCCAUGUUCCGGAAACGGCACAGGAUAUCUGUCCGAAAAGGUCAGAGAAGGGUGAAACCAGC [Fiskers NG3ss - 84] (Eterna round: R96, puzzle: Same State NG 3)
- apparent KD of MS2 coat protein (input ligand: FMN 200 uM): 106 nM
- apparent KD of MS2 coat protein [4]: 90.3 nM
- apparent KD of MS2 coat protein (input ligand: none): 1020 nM

Sequence: AACAGUCGGCGAGGAUAUGGACGUACGAACUUACCCGUGCGGCUCACAUGAGGAUCACCCAUGUUCUAGAAGGCGCCACUGAAA [Atbeon] (Eterna round: R96, puzzle: Same State NG 2)
- apparent KD of MS2 coat protein (input ligand: FMN 200 uM): 12.2 nM
- apparent KD of MS2 coat protein [4]: 63.4 nM
- apparent KD of MS2 coat protein (input ligand: none): 88.8 nM

Sequence: AGGCUCAGACGAGGAUAUAUGUGGUCACAUGAGGAUCACCCAUGUCUCGAGCUUCGGCUCGAGGCAUAGAAGGCGUCUGAGCCA [SSNG2/5-A1] (Eterna round: R96, puzzle: Same State NG 2)
- apparent KD of MS2 coat protein (input ligand: FMN 200 uM): 662 nM
- apparent KD of MS2 coat protein [4]: 16.4 nM
- apparent KD of MS2 coat protein (input ligand: none): 184 nM

Sequence: GGUAGGUUACUACCAAACAUGAGGAUCACCCAUGUAAAUGGGAAGGAUAUGGUACCUAUUUGGUACCAGAAGGUCCAAUUAAUU [JL Fiskers NG3ss - 2 mod 2] (Eterna round: R96, puzzle: Same State NG 3)
- apparent KD of MS2 coat protein (input ligand: FMN 200 uM): 670 nM
- apparent KD of MS2 coat protein [4]: 1720 nM
- apparent KD of MS2 coat protein (input ligand: none): 4550 nM

Sequence: GAAUAGUUGAGAGGAUAUGGAUUAUUGUAGGAUCCAGAAGGUUUUAACAUGAGGAUCACCCAUGUAGGACUAUAUAUGUGAAUA [Parity 97 - Jieux - Same State NG 1] (Eterna round: R96, puzzle: Same State NG 1)
- apparent KD of MS2 coat protein (input ligand: FMN 200 uM): 13.1 nM
- apparent KD of MS2 coat protein [4]: 11.7 nM
- apparent KD of MS2 coat protein (input ligand: none): 19.5 nM

Sequence: UAGGGACAUGAGGAUCACCCAUGUGCCUCAUAUGGAGAAACUCAGGAUAUGCUGAGGAUCACCCGGCAGAAGGGAGAUCCGAGG (Eterna round: R96, puzzle: Same State NG 3)
- apparent KD of MS2 coat protein (input ligand: FMN 200 uM): 86.6 nM
- apparent KD of MS2 coat protein [4]: 33 nM
- apparent KD of MS2 coat protein (input ligand: none): 53.4 nM

Sequence: UCUUGGUUUUUGCUCGUUUUUUGUGUUGAACAUGAGGAUCACCCAUGUAUUGUACGGUCCAGUUUAGUGGUAAUCCG [JMF 69] (puzzle: Sensor for hsa-mir-208a)
- apparent KD of MS2 coat protein [1]: 33.9 nM
- apparent KD of MS2 coat protein [2]: 20.6 nM
- apparent KD of MS2 coat protein [3]: 36.8 nM
